According to the supplement of paper PMC10567573:

B1: PBXIP1 (parent)
chain: FGEDGIFRHDRLRFRDFVDALEDS

Variants of: B1
Experiment: protein stability index of a GFP-peptide fusion (GPS, HEK-293T) (PSI 1-6); higher = more stable
Conditions: c terminus: a fixed tail appended
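Note: lentivirally expressed fusions sorted by FACS into six bins by GFP to DsRed ratio, PSI derived from sequencing read proportions per bin multiplied by bin number.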

Row | Variant | protein stability index
1 | FGEDPIFRHDRLRFRDFVDALEDS [G5P] | 3.37
2 | FGEDFIFRHDRLRFRDFVDALEDS [G5F] | 1.66
3 | FGEDMIFRHDRLRFRDFVDALEDS [G5M] | 3.23
4 | FGEDIIFRHDRLRFRDFVDALEDS [G5I] | 2.86
5 | FGEDVIFRHDRLRFRDFVDALEDS [G5V] | 3.19
6 | FGEDAIFRHDRLRFRDFVDALEDS [G5A] | 3.02
7 | FGEDNIFRHDRLRFRDFVDALEDS [G5N] | 2.34
8 | FGEDKIFRHDRLRFRDFVDALEDS [G5K] | 2.12
9 | FGEDYIFRHDRLRFRDFVDALEDS [G5Y] | 2.59
10 | FGEDSIFRHDRLRFRDFVDALEDS [G5S] | 1.95
11 | FGEDRIFRHDRLRFRDFVDALEDS [G5R] | 3.02
12 | FGEDLIFRHDRLRFRDFVDALEDS [G5L] | 2.54
13 | FGEDHIFRHDRLRFRDFVDALEDS [G5H] | 3.17
14 | FGEDTIFRHDRLRFRDFVDALEDS [G5T] | 2.88
15 | FGEDQIFRHDRLRFRDFVDALEDS [G5Q] | 3.23
16 | FGEDCIFRHDRLRFRDFVDALEDS [G5C] | 2.67
17 | FGEDDIFRHDRLRFRDFVDALEDS [G5D] | 3.5
18 | FGEDEIFRHDRLRFRDFVDALEDS [G5E] | 3.68
19 | FGEDWIFRHDRLRFRDFVDALEDS [G5W] | 1.4
20 | FGIDGIFRHDRLRFRDFVDALEDS [E3I] | 2.91
21 | FGVDGIFRHDRLRFRDFVDALEDS [E3V] | 2.05
22 | FGMDGIFRHDRLRFRDFVDALEDS [E3M] | 2.45
23 | FGQDGIFRHDRLRFRDFVDALEDS [E3Q] | 2.91
24 | FGFDGIFRHDRLRFRDFVDALEDS [E3F] | 2.18

Row | Variant | protein stability index
25 | FGPDGIFRHDRLRFRDFVDALEDS [E3P] | 2.28
26 | FGADGIFRHDRLRFRDFVDALEDS [E3A] | 2.75
27 | FGHDGIFRHDRLRFRDFVDALEDS [E3H] | 2.89
28 | FGTDGIFRHDRLRFRDFVDALEDS [E3T] | 2.28
29 | FGLDGIFRHDRLRFRDFVDALEDS [E3L] | 2.44
30 | FGCDGIFRHDRLRFRDFVDALEDS [E3C] | 2.17
31 | FGKDGIFRHDRLRFRDFVDALEDS [E3K] | 2.52
32 | FGYDGIFRHDRLRFRDFVDALEDS [E3Y] | 3.04
33 | FGDDGIFRHDRLRFRDFVDALEDS [E3D] | 3.01
34 | FGWDGIFRHDRLRFRDFVDALEDS [E3W] | 2.18
35 | FGSDGIFRHDRLRFRDFVDALEDS [E3S] | 2.02
36 | FGGDGIFRHDRLRFRDFVDALEDS [E3G] | 2.11
37 | FGNDGIFRHDRLRFRDFVDALEDS [E3N] | 1.99
38 | FGRDGIFRHDRLRFRDFVDALEDS [E3R] | 3.02
39 | FDEDGIFRHDRLRFRDFVDALEDS [G2D] | 3.36
40 | FKEDGIFRHDRLRFRDFVDALEDS [G2K] | 2.81
41 | FREDGIFRHDRLRFRDFVDALEDS [G2R] | 2.69
42 | FCEDGIFRHDRLRFRDFVDALEDS [G2C] | 2.83
43 | FAEDGIFRHDRLRFRDFVDALEDS [G2A] | 1.63
44 | FLEDGIFRHDRLRFRDFVDALEDS [G2L] | 2.96
45 | FWEDGIFRHDRLRFRDFVDALEDS [G2W] | 2.95
46 | FFEDGIFRHDRLRFRDFVDALEDS [G2F] | 2.75
47 | FVEDGIFRHDRLRFRDFVDALEDS [G2V] | 2.26
48 | FQEDGIFRHDRLRFRDFVDALEDS [G2Q] | 2.66

Row | Variant | protein stability index
49 | FHEDGIFRHDRLRFRDFVDALEDS [G2H] | 2.09
50 | FTEDGIFRHDRLRFRDFVDALEDS [G2T] | 2.35
51 | FSEDGIFRHDRLRFRDFVDALEDS [G2S] | 2.48
52 | FIEDGIFRHDRLRFRDFVDALEDS [G2I] | 1.97
53 | FPEDGIFRHDRLRFRDFVDALEDS [G2P] | 2.61
54 | FMEDGIFRHDRLRFRDFVDALEDS [G2M] | 2.91
55 | FEEDGIFRHDRLRFRDFVDALEDS [G2E] | 3.73
56 | FYEDGIFRHDRLRFRDFVDALEDS [G2Y] | 3.09
57 | FNEDGIFRHDRLRFRDFVDALEDS [G2N] | 3.09
58 | FGEDGFFRHDRLRFRDFVDALEDS [I6F] | 1.33
59 | FGEDGGFRHDRLRFRDFVDALEDS [I6G] | 3.65
60 | FGEDGDFRHDRLRFRDFVDALEDS [I6D] | 4.38
61 | FGEDGHFRHDRLRFRDFVDALEDS [I6H] | 4
62 | FGEDGEFRHDRLRFRDFVDALEDS [I6E] | 4.52
63 | FGEDGCFRHDRLRFRDFVDALEDS [I6C] | 2.33
64 | FGEDGAFRHDRLRFRDFVDALEDS [I6A] | 2.23
65 | AGEDGIFRHDRLRFRDFVDALEDS [F1A] | 4.02
66 | TGEDGIFRHDRLRFRDFVDALEDS [F1T] | 3.08
67 | KGEDGIFRHDRLRFRDFVDALEDS [F1K] | 2.64
68 | YGEDGIFRHDRLRFRDFVDALEDS [F1Y] | 2.72
69 | NGEDGIFRHDRLRFRDFVDALEDS [F1N] | 3.81
70 | SGEDGIFRHDRLRFRDFVDALEDS [F1S] | 3.74
71 | WGEDGIFRHDRLRFRDFVDALEDS [F1W] | 3.1
72 | DGEDGIFRHDRLRFRDFVDALEDS [F1D] | 4.29

Row | Variant | protein stability index
73 | GGEDGIFRHDRLRFRDFVDALEDS [F1G] | 3.59
74 | IGEDGIFRHDRLRFRDFVDALEDS [F1I] | 3.6
75 | PGEDGIFRHDRLRFRDFVDALEDS [F1P] | 4.16
76 | MGEDGIFRHDRLRFRDFVDALEDS [F1M] | 3.24
77 | RGEDGIFRHDRLRFRDFVDALEDS [F1R] | 3.78
78 | EGEDGIFRHDRLRFRDFVDALEDS [F1E] | 4.29
79 | QGEDGIFRHDRLRFRDFVDALEDS [F1Q] | 4.12
80 | CGEDGIFRHDRLRFRDFVDALEDS [F1C] | 2.39
81 | VGEDGIFRHDRLRFRDFVDALEDS [F1V] | 3.77
82 | LGEDGIFRHDRLRFRDFVDALEDS [F1L] | 3.14
83 | HGEDGIFRHDRLRFRDFVDALEDS [F1H] | 3.76
84 | FGEPGIFRHDRLRFRDFVDALEDS [D4P] | 1.94
85 | FGELGIFRHDRLRFRDFVDALEDS [D4L] | 1.99
86 | FGEGGIFRHDRLRFRDFVDALEDS [D4G] | 1.17
87 | FGECGIFRHDRLRFRDFVDALEDS [D4C] | 2.52
88 | FGESGIFRHDRLRFRDFVDALEDS [D4S] | 1.77
89 | FGEKGIFRHDRLRFRDFVDALEDS [D4K] | 1.82
90 | FGETGIFRHDRLRFRDFVDALEDS [D4T] | 2.24
91 | FGEWGIFRHDRLRFRDFVDALEDS [D4W] | 1.72
92 | FGEYGIFRHDRLRFRDFVDALEDS [D4Y] | 1.73
93 | FGEMGIFRHDRLRFRDFVDALEDS [D4M] | 1.79
94 | FGEFGIFRHDRLRFRDFVDALEDS [D4F] | 1.74
